Test results as given in US20200054723A1 (ALLAKOS, published 2020).
Where a chain is given by its changes, count along the chain named.

B1: RHE S-GKB (antibody, human IgG1, V domains shown)
VH: EVQLVESGGGLVQPGGSLRLSCAASGFSLTIYGAHWVRQAPGKGLEWVGVIWAGGSTNYNSALMSRFTISKDNSKNTVYLQMNSLRAEDTAVYYCARDGSSPYYYGMEYWGQGTTVTVSS
VL: EIILTQSPATLSLSPGERATLSCSATSSVSYMHWFQQKPGQAPRLWIYSTSNLASGVPARFSGSGSGTDYTLTISSLEPEDFAVYYCQQRSSYPFTFGPGTKLDIK
notes: human IgG1/kappa
B2: HB2KA (antibody, human IgG1, V domains shown)
VH: QVQLQESGPGLVKPSETLSLTCTVSGFSLTIYGAHWVRQPPGKGLEWLGVIWAGGSTNYNSALMSRLSISKDNSKNQVSLKLSSVTAADTAVYYCARDGSSPYYYSMEYWGQGTLVTVSS
VL: B1 VL with I3V, W46L, V57I, Y70F
notes: human IgG1/kappa
B3: HA2KB (antibody, human IgG1, V domains shown)
VH: B2 VH with F27G, L29I, T30S, V37I, L48I, L67V, S68T, K71V, N73T, V78F
VL: B1 VL
notes: human IgG1/kappa
B4: RHE Triple-KA (antibody, human IgG1, V domains shown)
VH: B1 VH with E108D, Y109V
VL: B1 VL with I3V, W46L, V57I, Y70F
notes: human IgG1/kappa
B5: RHE S-GKG (antibody, human IgG1, V domains shown)
VH: B1 VH
VL: B1 VL with I3V, F35Y, W46L, V57I, Y70F
notes: human IgG1/kappa
B6: RHE Y-VKFmut (antibody, human IgG1, V domains shown)
VH: B1 VH with G106S, Y109V
VL: B1 VL with I3V, W46L, V57I, F95Y
notes: human IgG1/kappa
B7: RHE Y-VKA (antibody, human IgG1, V domains shown)
VH: B1 VH with G106S, Y109V
VL: B1 VL with I3V, W46L, V57I, Y70F
notes: human IgG1/kappa
B8: RHE Y-VKB (antibody, human IgG1, V domains shown)
VH: B1 VH with G106S, Y109V
VL: B1 VL
notes: human IgG1/kappa
B9: RHE Y-VKE (antibody, human IgG1, V domains shown)
VH: B1 VH with G106S, Y109V
VL: B1 VL with I3V, W46L, Y70F
notes: human IgG1/kappa
B10: RHE Triple-KD (antibody, human IgG1, V domains shown)
VH: B1 VH with E108D, Y109V
VL: B1 VL with I3V, V57I, Y70F
notes: human IgG1/kappa
B11: RHE Triple-KE (antibody, human IgG1, V domains shown)
VH: B1 VH with E108D, Y109V
VL: B1 VL with I3V, W46L, Y70F
notes: human IgG1/kappa
B12: RHE S-GKF (antibody, human IgG1, V domains shown)
VH: B1 VH
VL: B1 VL with I3V, W46L, V57I
notes: human IgG1/kappa
B13: RHE Y-VKG (antibody, human IgG1, V domains shown)
VH: B1 VH with G106S, Y109V
VL: B1 VL with I3V, F35Y, W46L, V57I, Y70F
notes: human IgG1/kappa
B14: RHE S-GKD (antibody, human IgG1, V domains shown)
VH: B1 VH
VL: B1 VL with I3V, V57I, Y70F
notes: human IgG1/kappa
B15: RHE Y-VKF (antibody, human IgG1, V domains shown)
VH: B1 VH with G106S, Y109V
VL: B1 VL with I3V, W46L, V57I
notes: human IgG1/kappa
B16: RHE S-GKC (antibody, human IgG1, V domains shown)
VH: B1 VH
VL: B1 VL with W46L, V57I, Y70F
notes: human IgG1/kappa
B17: RHE Y-VKD (antibody, human IgG1, V domains shown)
VH: B1 VH with G106S, Y109V
VL: B1 VL with I3V, V57I, Y70F
notes: human IgG1/kappa
B18: RHE Y-VKC (antibody, human IgG1, V domains shown)
VH: B1 VH with G106S, Y109V
VL: B1 VL with W46L, V57I, Y70F
notes: human IgG1/kappa

Target: T1, recombinant human Siglec-8 extracellular domain (ECD) (human, UniProt Q9NYZ4 17-363)
T1 construct: extracellular domain; also called Siglec-8 ECD; full Siglec-8 ECD
Experiment: ELISA, coated Siglec-8 ECD
Description: Binding of recombinant human Siglec-8 extracellular domain (ECD) by chimeric 2E2 and chimeric 2C4 IgG1K antibodies was measured by ELISA. […] Three-fold serial dilutions of a chimeric antibody (ch2E2 or ch2C4) or mouse antibody (m2E2 or m2C4) in 0.2% BSA/TBS (starting concentration was 5000 ng/mL) was added to each coated well. The plate was incubated for 2 hours at room temperature and the wells were subsequently washed before addition of goat-anti-human Fc peroxidase conjugate (1:10000 dilution) or anti-mouse Fc peroxidase conjugate (1:30000 dilution) diluted in 0.2% BSA/TBS solution. The plate was incubated for 45 minutes at room temperature, followed by washing and addition of 30 μL K-blue HRP substrate (SkyBio Ltd) to each well. After incubation at room temperature for 15 minutes, the reaction was stopped by adding 10 μL of Red Stop solution (SkyBio Ltd) to each well. The optical density or the experimental samples was read at 650 nm using the ELISA reader PHERAStar FS (BMG Labtech).
The fully humanized antibody heavy and light chains were combined and compared with the chimeric antibody to determine if replacing the 4 Å and canonical framework residues and interface residues was sufficient to successfully humanize 2E2. Expi293 cells were co-transfected with combinations of different humanized light chain vectors in association with different humanized heavy chain vectors. Siglec-8 antigen was used to measure antibody binding by ELISA as described in Example 1.

T1 sequence (Q9NYZ4 17-363): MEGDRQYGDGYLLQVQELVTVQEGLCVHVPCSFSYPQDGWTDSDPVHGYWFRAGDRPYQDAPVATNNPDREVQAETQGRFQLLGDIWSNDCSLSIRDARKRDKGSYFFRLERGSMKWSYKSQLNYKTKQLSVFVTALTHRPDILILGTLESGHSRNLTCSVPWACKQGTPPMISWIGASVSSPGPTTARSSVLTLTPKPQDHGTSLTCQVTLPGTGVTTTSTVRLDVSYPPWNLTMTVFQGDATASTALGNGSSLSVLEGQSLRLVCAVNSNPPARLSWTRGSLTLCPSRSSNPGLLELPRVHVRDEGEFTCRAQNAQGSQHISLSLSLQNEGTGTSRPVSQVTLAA

| EC50 | Binder |
| --- | --- |
| 627 nM | B1 |
| 0.051 nM | B2 |
| 124 nM | B3 |
| 18.6 nM | B4 |
| 33.5 nM | B5 |
| 0.398 nM | B6 |
| 0.088 nM | B7 |
| 0.306 nM | B8 |
| 0.07 nM | B9 |
| 13.2 nM | B10 |
| 34.1 nM | B11 |
| 3.28 nM | B12 |
| 8.81 nM | B13 |
| 8.65 nM | B14 |
| 0.091 nM | B15 |
| 173 nM | B16 |
| 0.283 nM | B17 |
| 0.215 nM | B18 |
